Test results from a protein production outcome set (Wang et al. 2014).

experiment: label from the status in PepcDB records
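Note: failed if final PepcDB status was selected cloned or expressed and not failed if soluble or beyond.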

Sequence	protein production
MRSSSSSSVLPSLPNARLRRPAVWIAFLAVAALSLTGCDLFGSNDDEGRRVTTDVVIANSGNFSAQDGSLTLYNPTASTATLKDIEVAFINSLAQHNGRLFVVDNTTSDNAGKITTFDTEQLGPVDQITNLQRSPRRIAFPEENKGYVTNLSRDLDDAPSNFVPDTSTVSVVDLEADSVTKRVDVGRSPEGIAAVARKAFVANSADGTLSVLDAGADTVNTTLSLPDCANPKSVFVDDENEVAVVCQGGGEQASEVLFLSPIEETIKDRVELGAPIGSANGSQSAYYSEGAEELYTISGSQAFGGNGTGEIFRIDTNANALDATLEIPQDDGLIGITAVGYDDVTQDLYVTRLPVGAGGFPLFSANGTALVLDRQGNEVTRFETGNSPGHITFLGDRQ	failed
MRSTVAEPPVLDKIIKNVRVVRPHNDAVELLDIGIKDGKFAQIAPNITPDTGQEIFDAKNLLGFPGVVDAHMHIGIYQPLDKDAVTESKAAAMGGVTTSLNYIRTGQYYLNKGGSYRDFFPEVLALSAGNFFVDYSYHVAPIASQHIDEIPLLFEEHGVTSFKIFMFYGGYGLHGLSDQQNLFLMINKEERYDFAHFEFIMRGVTRLMAEYPEARDYISLSLHCEVAEILNAYTKIVENDSSLSGLHAYSAARPPHSEGLAISIAAYLAHETNCANINLLHLSSRKAMEAALIMQTAFPHINFRREVTVGHLLLDVDTPNGTWAKVNPPIRPRADVEYLWQAVLNHQVDWIVSDHACCSAEQKRSAKDPNNIWLAKSGFGGTEYLLSGVVSEGSKRGMSYNHMAKLLSWNPSRRFGLLTKGDIAIGYDADLVLVDPNESFVVRAAESESQQGYTPFEGMELTGRVKSTFLRGSLIYHNGQVLGSPNGRYVRRSLGG	failed
MRSWAIDLEEYLMSKALEGKSPGTVDRYRYELQRLLSYVNKAVRDITEGDISGYMRAYKAIRQVSNQTLKNVRAVYSSFFAWLRDRDRIRRNPMALVEAIKVLEHHHHHH	failed
MRSYAIGDIHGHLSLLQEIHGRIAADRARTGDDEAPVVHIGDLVDRGPDSRGVVEYLRQGIEQGENWVVLKGNHDRMFAGFLRDPAHQDPGLRGDLSWLHPRLGGGPTLESYGVAHAADRPVAIVHREAVALVPAEHVAFIEALPAVYRRDEALFVHAGIRPGVPLAEQIEDDLVWIREPFLSDPRDHGMLVVHGHTAIDAVTHYGNRLNLDSGAAYGGPLSAVVIEGRSVWQLGPEGRRPIALEHHHHHH	failed
MRTATSTSPATGTPAPVPSRTPDVTVTVIVYNDAGRLPRAVASALRQSHANIEVVISDDHSTDATEEVARELAAHDPRVVYLRLPENSGGCSAPRNRALEIARAPYLMFLDSDDELPERAVEVLLAAHRERDLDFAMGAVHRIREDGGRRTTWMPHLVAERRTLDGIEADPRLLFEHLSTSKMYARAFLDRHGLRFPEGIHYEDQLFSAQAYCLAKTFTVVPEPVYRWYIAPYADADSASISNQRHKLTNVRDRVHVQRLIDAFLAESGHEALREDKDFKFLKHDFRMYAGDLPYRDDTWLASFADLMNPYLDTLAEGAYARLPRAERVVLRLLRDRRLSDVRTAARGLGHDVAPRRVTPDEQSGRVYWGEEVPASPESRRELDLTDLDLDTRPFFTALLRHEITEITRGPGASVDLTVRTYDPALRLPVGPQRAVLHLSPGPRRLTVPFRLSPVRPGLFEGRVRLDLAAARLPLHGFAGTRHPVLRLRHRGRTHTGILLAPLAFPPLTARVPYRTGLTPHRVTLRPEGHNPGRLQITWQPVGTTAKILGPAARRLSTPRTRRAARLLSNILRLEHHHHHH	not failed
MRTLIILLLCTNTSFAIAQISPKAVEKNNQSVKTAGFFNDSDSLNKAIHLSDEAIALEPSYKLAYANKIKYLMALGQKEKALQTMLQMEKFSPDDPYYILGKGMMLEENAKKSLAMDAYKQAASLFKKRLKEKPTEADLMNYVFVLFLRDNKNYSLDEIEKEYPQIFSPAIRQHTKKLIDELSNKREDVIHEMLGGK	failed
MRTPLIDRRDFLRAAGIGFAAVMAPSAWAKTLAANAVFATAFVKRDGSFGAAILSEAGKVLHAIDLPDRGHDVTFDPISKRSVVFARQPGTFAVVFDHSGRDAPQTVASISGRHFFGHGVFSPDGALLYATENDFDNAAGVIGIYDARAKFSRVGEFPTYGMGPHELLLLGDGRTMAVANGGIETHPDYGRAELNIATMKPSYVLIDRVTGDLIEKHELPASLHQLSIRHMDTDPSGTVWFGCQYRGPGTDRPLLVGRAVRGKELQLLDMPQDVLSGFRNYIGSVAANLSAGSVAVSSPEGNSLVVIDAASGRVVSSSALVEVCGLAPDGSGFIATTGAGEIIEGSGATRSEPDYVWDNHMLRIERA	failed
MRTSNPMLKKEAFRKEGASASAMTIGGTVGKTFIMLILLLATSVYSYIQMMQGTMKMPVLIGALIVAAIIAFASMFFPRISPFGAPIYAAVEGVVLGSISAVYTMKFGDSIVLNAVLLTISILFAMLVLYATRVVKVTDKFRTGVMAATLGIMVMYLVVFLLNMFGVTVPYIHQGGTIGIIISAVVIVVAALNLLLDFDLIENGVRSQAPKYMEWYTAMGLMLTLVWLYLEILRFVSYFTKND	not failed
MRTTHSPATAAGRTLGRVLKAVLSLLVLAAAVAGLPLLLAWVTPAIWASSHDDLTHLLDRQDTGAAFLLLLVAVGWIGWAQFAFCAVRELIAQVGGRSWQAPRRLGASQRAAALLVGSILVLLPTSSALASDAHASPATTEARVPGQAPAPQTAEPDQTLPDSASTPASRTSYTVRATRPAQSLWGIAERELGDGERWREIAALNEGRTMVDGQVFRAHGFLQPGWQLEMPDTAAAAGGIRTQLGRAAPTAEGKNEHVVTVHSGDYLSKIAEEELGDGGEWPRLFKASRGKTQPDGLPAISDPDVIYAGQQVTVPGAQPDPHTPPRDGDNGDEAGSQETTPPATQKPDGKQKPGDDRRDEQAPAPGTTTAPAPESSAPSTPASRPAEQPGQEQGSPSATASATPRPGTSPAPSAAAPSATAEAPGSADSSPATTASETPPPAPAPAPASSPLNLRTVLGAGTLLAAAITGALALRRTLQRRRRTPGEKIAIASETSPAEAKLAAAAEPGGAARLDVALRTLAHQVAHEKAADLPPIRAARIGTRTVEVLPEGLARKPQAPFVAGQAGWWVLPAEAVLLDEETAREVPAPYPGLVTIGSTESGDLLLLNLPQVAALLLDGNPVHITEVCTSLALELGMSPWASEAEIVTIGFGEDLPQLLPTSRIAHMRHARHALRDLSERLLEAHQMPETSHQPYLLLCASTLDADLAWQFADIIDKAQHVPVTLIAPASAAAASFPDAEILNASLSKPQQFDYIGSEITVQRLEHAAYLQITTALAISAQPADPAEGPWEEVPHEPDTPQRPRPLDLAKPTQSGDGEKPVPASPFTAGTGDSEIYPALLAASTDPASLKLLPDPKAPGKAPAEPGTEPAEMTPDGRAPQKAAEATGRPQETPAAEAVGEDTQAQDLHAPEIRVLGPVEVTGVATTGHGPSQARLAALLYFRPGRSADVLCADMDPVSPWSTATLNARLQGLRRALGNDPAGNAYVPRRRSGDDPYELSEAVRCDWARFTQLAQRALPQGTAGLPDLEKALGLIRGRPFGTRPLPWAEPYQQEMSTRIIDVAHTVATYRTPTGPHHDLTAARQAIATGLDVDDSAELLYRDWMRIEHAAGNRAGLHTAITRIQDINRKIDCSLENETEQLINDLLGPTGGRARGR	failed
MRVAIPAEDDRGIKSNVSKHFGRSRYFVFVDIEGEDVKNVEVVEVPFEEHGPGDLPNFIKDHGAKIVLTYGIGRRAIEYFNSLGISVVTGVYGRISDVIKAFIGGKLKIDYDWKEKIEKEH	not failed
MRVEIWSDIACPWCYVGKARFEKALAAFPHRDGVEVVHRSFELDPGRAKDDVQPVLTMLTAKYGMSQEQAQAGEDNLGAQAAAEGLAYRTRDRDHGSTFDLHRLLHLAKERGRHEALLDAFYRGNFADERSVFNDDERLVELAVGAGLDAEEVRAVLADPAAYADEVRADEREAAQLGATGVPFFVLDRAYGVSGAQPAEVFTQALTQAWGERTPLKLIDDGGAEACGPDGCAVPGH	not failed
MRVHASSPDNKLQVFAIAGTKAILLAMNMDDSLLQGFHGFAFRRRVANGQWEWLTGLKVFVDVFPEGGPVIKKGKVGRFPTNEHPIQSFLWSDYRASPGTKYEFEISAMFGPIAKLEAYYAATLAITTEQEDDGKHGIWFNLGAIASQAFAEKFGNKPLSDADYNDPDNEEVAFLSRGLLEACIEFIRETPAGDALRIVAYEFTFKRILLELKAALERGVDVRIVYHATTANEKAIADAKLPENSKGVQILFKRTRPQTPHNKFIVRLKKGKTPVSVWTGSTNFTPSGFLGQTNVGHKVTDGDIAKIYLQLWEGLKADPDDFDATQAAMALTPNPANVVGTGTTLVFSPRPSPKMLDWYGHRAADAVNAVMFTAAFKVDERILSALADTDTSMRFILLEQPPSAEVQAARRANPADLELSYGAILGKTKMLTEERTGRDATGKKVTKIVPIPNFKIEKWFLKEELERQSGDGFVFYVHTKFLLVDPFSDDPLVCTGSANFSGASLTSNDENMLLIRGDTRVADIYLTEYDRVFRHFYSRDVINDIAKKGGPVNVGKLDPTDKWWQPYYDAKLAKSHKRRMFFEDPKKHWIESATQDGNVFAKEKPLKKPQ	failed
MRVKICGITRLEDALLAEALGAFALGFVLAPGSRRRIAPEAARAIGEALGPFVVRVGVFRDQPPEEVLRLMEEARLQVAQLHGEEPPEWAEAVGRFYPVIKAFPLEGPARPEWADYPAQALLLDGKRPGSGEAYPRAWAKPLLATGRRVILAGGIAPENLEEVLALRPYALDLASGVEEAPGVKSAEKLRALFARLASLRMEG	not failed
MRVTWEEAGWESVAPFVGRRRLPGWDCTVGLVIGDSAALMIDAGSSLREGALLRAEAQRLLGPGRRVTHLALTHPHFDHVFGAAAFSGVEVFGAVGLDTALAHGREELRADAVRNGLDPRAAEGAADLLVRPRHHVFGEWTLDLGGEVQVLLANVGPGHTAYDLAVLVSSSPEVVFCGDLVEESGEPQAGPDAIPSHWPAALDRLLDLGGQDAVYVPGHGATVDAAFVRTQRDELAARFGIA	failed
MRVVALVPGGIGDQILFFPTLDDLKRYYPNAQLDVVVEPRSKAAYRVSKSVNDILTFDYKDRNSLADWGNLVGTIRDREYDVVITVGQSWLVGLFLWLTGIPTRIGYQGKGRSFLTKTVPFKPSQYAAAVYHDLLAPIGITTPTPELEHHHHHH	failed
MRVVVTGATGFVGQQVVKALSDRGDQVVALVRSPGKAAKQFAGVPRVEWLGYTPKAAGDWFSALEGADAVIHLAGEPLANGRWTPQRKQEIYDSRVVGTQQLVQAIAQCQQRPRVLVSTSAIGYYGTSDTETFVETHAAGNDFLAKVCGDWEAAAQGVTELGVRLVILRFGIVLGEQGALAKLLLPFQLYLGGPLGSGQQWFSWIHQQDLVRLILTAVDQVGMQGVYNATAPEPLRMADFCRILAEVMQRPSWLPVPAPVLQLLLGEGADVVLKGQRVLPERTLATGFEFHYPNAKTALTNLLKPRYTEGSRLEHHHHHH	not failed
MRYCRRIGDGHITANSRRMFMVEPAGRKPDPQRRTPHPSVAPADAPWPAHSPVDPAVRRFRGAARYAIWRRGAEWTAVADGPQWSAALAPRIWALRQRQWPVLAVSAPMLVVAGAVALAGVQGWSPVAWTALLVAEVLLRVWVARQAGPWRTAALQRTGWQLVTRLRAISVADAVTTAQIRAGRPQR	failed
MRYRNTALFVLLAAVWGSAFVAIKAGVGSPDAPGYFFDAPVLFAAVRYDIAAVLMFAYVAWATDRWRPRGRTEWLAVAVGSAFIIAGYHALLFLGQRGTTSAAAAVIVSLSPVLTTAFARALLADERLSVLGLAGMGVGFLGVVVLSQPTPADIAASRFEALVFAAALCFALGSVLTRRLDTDLPIETMEAWSMAGGALLMHALSLALGETVSGAPPTDALVALGYLAVVASAAGFLVYFDLLGRLGAIEINLVSYVVPVFAALVGVLLLGERVDTPTAAGFLLVFAGFVIIKRRAIRAEIADSYWP	failed
MRYWKNSRIKMFEQEDEWISKTQMKKQMNDLQDLGMALTKLSNDTLKKIGLDADLYEAVTAYKKITSNGALKRQAQFIGRLMRDTDPAPIEAFLAKLRGDDAAHNAFLQRVEQARVRLLADDGALTQFMSDFPHADAGKLRTLIRNTKKEQEQNKPPKNFRALFQELKTVMENGDAEI	failed
